Results as given in publication PMC8350387, “Solution Structure of the dATP-Inactivated Class I Ribonucleotide Reductase From Leeuwenhoekiella blandensis by SAXS and Cryo-Electron Microscopy” (Frontiers in Molecular Biosciences, 2021).

Key:
[1] = biological target: Leeuwenhoekiella blandensis class I ribonucleotide reductase radical-generating subunit NrdB (LbNrdB) (Leeuwenhoekiella blandensis); assay: SEC-SAXS; LbNrdB alone, 350 μL of 11 mg/ml with 1 mM dATP loaded on Superdex S200; SEC buffer 50 mM Tris-HCl pH 7.6, 300 mM NaCl, 2 mM DTT, 1 mM Mg acetate, 0.4 mM dATP, 5% glycerol
[2] = biological target: Leeuwenhoekiella blandensis class I ribonucleotide reductase radical-generating subunit NrdB (LbNrdB) (Leeuwenhoekiella blandensis); assay: cryo-EM structure; LbNrdAB complex formed with dATP, isolated on Superdex 200 with on-column 0.05% glutaraldehyde cross-linking in HEPES buffer; single particle reconstruction at 8.2 Å, no symmetry imposed
[3] = biological target: Leeuwenhoekiella blandensis class I ribonucleotide reductase radical-generating subunit NrdB (LbNrdB) (Leeuwenhoekiella blandensis); assay: SEC-SAXS; LbNrdA and LbNrdB mixed at 85 μM each with 1 mM dATP and 2 mM magnesium acetate, 5 min, on Superdex S200; SEC buffer 50 mM Tris-HCl pH 7.6, 300 mM NaCl, 2 mM DTT, 1 mM Mg acetate, 0.4 mM dATP, 5% glycerol
[4] = biological target: the molecule itself; assay: SAXS; batch mode, LbNrdA 0.625-5 mg/ml in 50 mM Tris-HCl pH 7.6, 300 mM NaCl, 2 mM DTT, 5% glycerol, 2 mM magnesium acetate, 1 mM dATP; 10 °C

stoichiometry N [1] | stoichiometry N [2] | stoichiometry N [3] | stoichiometry N (LbNrdA per LbNrdB (α4β4)) [3] | Molecule | stoichiometry N [4]
4 | 4 | 4 | – | Leeuwenhoekiella blandensis class I ribonucleotide reductase radical-generating subunit NrdB (LbNrdB) (enzyme) | –
– | – | – | 1 | Leeuwenhoekiella blandensis class I ribonucleotide reductase catalytic subunit NrdA (LbNrdA) (enzyme, UniProt A3XHF8 1-600, looked up, NrdA (α subunit, subclass NrdAi, lacks an ATP-cone) of Leeuwenhoekiella blandensis; the homology model covers residues 40-596 and lacks 43 terminal residues per monomer; Dimer (α2) with dATP by SAXS; also called α2 (dimer); source: purified as described previously (Rozman Grinberg et al., 2018a); not shown: His6, N-terminal, kept) MRENTTKLENSTETNVQHTKDNDLLKARRDALQDATEKNTDEPSFDWLTEHSRSFLAAGYLSEGVSAEERIREIADRAEEILRMPGFSDKFYKYMGEGYFSLASPVWSNFGKKRGLPISCFGSHIDDDMGNILYTQSEVGMMSKLGGGTSGYFGKIRHRGAAVKNNGYASGAVHIMQLFDKMVDVVSQGSVRRGRFSPYLPISHPDIKEFLEIGTEGNSIQQLTHGVTVDSTWMQEMIDGDTDKREVWAKVLQRRGEMGYPYIFYTDNANNGKPDVYKDKGHDIYASNLCTEIMLPSSDEWSFVCVLSSINVLHYDKWKNTDAVETMVCFLDAVLTEFIDKLEEYRDSDNRDHRQTFMFMERAYNFAKSNRALGLGVLGWHSLLQSKRHAFDSQEAYDLNSEIFREIKQRSYKASEELAEKFGEPETLKGYGRRNATLNAIAPTTSSAFILGQVSQGIEPIWSNVYVKDIAKIKTTIKNPFLEELFEEKGMNTPEVWRSVRDNDGSVQHLEFLTEQEKDVFKTYAEIDQMAIIYQAANRQNHIDQGQSINLLVHPDMPIKEINKIHITAWKLGLKSLYYQHSMNAAQKFKQKKECVSCEA | 2
